EP4563596A1 (OncoSpear ApS, dated 2025)
Numbering of substitutions follows the chain as printed. In names and notes the source's numbering stands. Where two headings read alike, the source gives them in different places. Blank lines part the entries; values can stand above or below the binder they belong to.

Assays:
[1] = molecular target: T1, CD16 V158 (FcγRIIIA) on Jurkat reporter cells (human, UniProt P08637 17-254); assay: cell-based or functional assay
[2] = molecular target: T2, CD16 F158 (FcγRIIIA) on Jurkat reporter cells (human, UniProt P08637 17-254); assay: cell-based or functional assay
T2 sequence (P08637 17-254): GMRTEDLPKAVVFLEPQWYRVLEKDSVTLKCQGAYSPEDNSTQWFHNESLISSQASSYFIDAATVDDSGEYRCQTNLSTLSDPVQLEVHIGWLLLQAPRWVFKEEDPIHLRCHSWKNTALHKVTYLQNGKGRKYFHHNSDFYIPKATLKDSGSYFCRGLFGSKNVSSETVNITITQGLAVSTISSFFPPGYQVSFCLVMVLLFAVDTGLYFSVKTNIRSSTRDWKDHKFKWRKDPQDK

[3] = molecular target: T1, CD16 V158 (FcγRIIIA) on Jurkat reporter …; assay: cell-based or functional assay; remark: listed apart in the source
[4] = molecular target: T2, CD16 F158 (FcγRIIIA) on Jurkat reporter …; assay: cell-based or functional assay; remark: listed apart in the source
[5] = molecular target: full length human CD163 on cells (human, UniProt Q86VB7 42-1156); assay: cell-based or functional assay
Sequence of full length human CD163 on cells (Q86VB7 42-1156 limits assumed): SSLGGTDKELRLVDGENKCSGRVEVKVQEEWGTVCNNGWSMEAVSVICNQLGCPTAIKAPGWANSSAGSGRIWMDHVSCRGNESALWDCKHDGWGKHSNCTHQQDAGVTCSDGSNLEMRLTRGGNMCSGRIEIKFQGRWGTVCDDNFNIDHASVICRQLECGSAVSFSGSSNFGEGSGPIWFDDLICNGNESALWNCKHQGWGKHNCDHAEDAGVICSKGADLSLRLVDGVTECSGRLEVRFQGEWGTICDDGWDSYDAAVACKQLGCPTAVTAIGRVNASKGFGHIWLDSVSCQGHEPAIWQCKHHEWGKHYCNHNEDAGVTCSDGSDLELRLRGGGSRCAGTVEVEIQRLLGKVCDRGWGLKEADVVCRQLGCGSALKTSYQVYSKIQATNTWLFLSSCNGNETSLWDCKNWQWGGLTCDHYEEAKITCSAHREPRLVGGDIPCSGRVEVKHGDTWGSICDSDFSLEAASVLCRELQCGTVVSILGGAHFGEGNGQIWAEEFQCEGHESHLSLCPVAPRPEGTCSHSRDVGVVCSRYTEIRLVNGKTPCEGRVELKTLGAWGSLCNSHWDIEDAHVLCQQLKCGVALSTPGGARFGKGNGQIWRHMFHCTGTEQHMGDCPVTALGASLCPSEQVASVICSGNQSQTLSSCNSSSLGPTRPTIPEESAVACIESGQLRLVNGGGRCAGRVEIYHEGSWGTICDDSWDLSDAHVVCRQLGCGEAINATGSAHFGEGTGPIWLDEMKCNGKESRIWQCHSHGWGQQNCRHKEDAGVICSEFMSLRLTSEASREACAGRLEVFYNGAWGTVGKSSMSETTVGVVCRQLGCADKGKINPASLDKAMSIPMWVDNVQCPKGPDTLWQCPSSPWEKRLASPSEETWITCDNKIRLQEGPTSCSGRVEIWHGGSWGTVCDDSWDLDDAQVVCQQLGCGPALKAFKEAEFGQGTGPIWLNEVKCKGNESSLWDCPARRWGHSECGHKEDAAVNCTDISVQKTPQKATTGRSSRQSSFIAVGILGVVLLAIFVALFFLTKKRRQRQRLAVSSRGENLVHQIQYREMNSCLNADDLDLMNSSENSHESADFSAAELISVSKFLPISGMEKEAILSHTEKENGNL

[6] = molecular target: T3, human CD163 domain 1-9, recombinant, immobilized on a CM5 sensor chip (human, UniProt Q86VB7 42-1050, limits assumed); assay: SPR (Biacore T200), human CD163 domain 1-9 immobilised on CM5 chip, antibody injected, 1:1 kinetic fit
T3 construct: the whole entry is named; also called immobilized CD163
T3 sequence (Q86VB7 42-1050 limits assumed): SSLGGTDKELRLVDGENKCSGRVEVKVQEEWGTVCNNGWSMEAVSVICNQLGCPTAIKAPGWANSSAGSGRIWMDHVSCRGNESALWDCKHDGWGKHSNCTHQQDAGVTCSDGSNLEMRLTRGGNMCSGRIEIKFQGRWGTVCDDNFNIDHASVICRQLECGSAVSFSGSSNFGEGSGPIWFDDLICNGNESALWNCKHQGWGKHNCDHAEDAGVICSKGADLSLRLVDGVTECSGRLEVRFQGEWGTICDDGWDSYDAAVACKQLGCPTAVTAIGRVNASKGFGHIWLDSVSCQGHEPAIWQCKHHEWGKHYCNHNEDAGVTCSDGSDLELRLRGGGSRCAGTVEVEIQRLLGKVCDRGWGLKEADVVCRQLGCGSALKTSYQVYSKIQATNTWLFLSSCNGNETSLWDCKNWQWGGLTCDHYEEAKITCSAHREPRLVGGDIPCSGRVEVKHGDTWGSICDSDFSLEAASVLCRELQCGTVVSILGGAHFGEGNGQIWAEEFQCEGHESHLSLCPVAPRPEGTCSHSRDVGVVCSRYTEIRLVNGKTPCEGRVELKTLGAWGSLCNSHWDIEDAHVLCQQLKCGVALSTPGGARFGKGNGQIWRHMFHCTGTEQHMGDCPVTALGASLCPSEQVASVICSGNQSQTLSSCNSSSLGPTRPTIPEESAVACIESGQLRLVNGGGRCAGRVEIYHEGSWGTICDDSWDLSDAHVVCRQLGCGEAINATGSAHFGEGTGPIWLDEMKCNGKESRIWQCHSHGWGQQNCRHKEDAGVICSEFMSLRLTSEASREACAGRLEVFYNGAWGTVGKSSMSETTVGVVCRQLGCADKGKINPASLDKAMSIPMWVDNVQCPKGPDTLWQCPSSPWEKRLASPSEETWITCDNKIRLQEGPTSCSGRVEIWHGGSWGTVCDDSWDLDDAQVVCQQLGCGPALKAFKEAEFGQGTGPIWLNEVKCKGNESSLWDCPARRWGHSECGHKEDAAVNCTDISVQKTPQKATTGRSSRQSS

[7] = molecular target: T3, human CD163 domain 1-9, recombinant, …; assay: as above; remark: listed apart in the source

T1 sequence (P08637 17-254 F176V): as the sequence (P08637 17-254) above, with F160V counted along it

Relative EC50 ADCC V158 (high); target cells FlpIn293-hCD163 [1]: 7.6 relative (EC50 OS001/EC50 construct)
Relative EC50 ADCC F158 (low); target cells FlpIn293-hCD163 [2]: 7 relative (EC50 OS001/EC50 construct)
Relative EC50 ADCC (CD16 V158); target cells M2c macrophages [3]: 23 relative (normalized to OS001)
Relative EC50 ADCC (CD16 F158); target cells M2c macrophages [4]: 12 relative (normalized to OS001)
B8: OS009 (antibody, human IgG1, kappa)
heavy: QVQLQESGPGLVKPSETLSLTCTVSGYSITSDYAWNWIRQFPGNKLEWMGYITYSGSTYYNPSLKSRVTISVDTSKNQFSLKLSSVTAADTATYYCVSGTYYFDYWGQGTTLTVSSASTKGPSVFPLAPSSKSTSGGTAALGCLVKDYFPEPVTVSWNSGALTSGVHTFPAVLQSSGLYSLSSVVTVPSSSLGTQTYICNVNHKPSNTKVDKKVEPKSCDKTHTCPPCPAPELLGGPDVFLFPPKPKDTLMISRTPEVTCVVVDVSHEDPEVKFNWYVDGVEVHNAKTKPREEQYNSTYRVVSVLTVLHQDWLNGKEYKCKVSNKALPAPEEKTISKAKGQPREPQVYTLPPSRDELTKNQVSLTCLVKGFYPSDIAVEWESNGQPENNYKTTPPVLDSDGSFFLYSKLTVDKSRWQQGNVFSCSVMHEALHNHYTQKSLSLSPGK
light: DIVMTQSPSSLSASVGDRVTITCRASQSVSSDVAWFQQKPGKSPKPLIYYASNRYSGVPSRFSGSGSGTDFTLTISSLQAEDFAVYFCGQDYTSPRTFGGGTKLEIKRTVAAPSVFIFPPSDEQLKSGTASVVCLLNNFYPREAKVQWKVDNALQSGNSQESVTEQDSKDSTYSLSSTLTLSKADYEKHKVYACEVTHQGLSSPVTKSFNRGEC
EC50 of PBMC mediated cytotoxicity in CD163 expressing macrophages [5]: 2.8 ng/mL

Relative EC50 ADCC V158 (high); target cells FlpIn293-hCD163 [1]: 11.2 relative (EC50 OS001/EC50 construct)
Relative EC50 ADCC F158 (low); target cells FlpIn293-hCD163 [2]: 17.6 relative (EC50 OS001/EC50 construct)
Relative EC50 ADCC (CD16 V158); target cells M2c macrophages [3]: 39 relative (normalized to OS001)
Relative EC50 ADCC (CD16 F158); target cells M2c macrophages [4]: 111 relative (normalized to OS001)
B11: OS017 (antibody, human IgG1, kappa)
heavy: not shown
light: B8 light
modifications: afucosylated glycan (GlymaxX expression)
EC50 of PBMC mediated cytotoxicity in CD163 expressing macrophages [5]: 2.6 ng/mL

Kd [6]: 410 pM
koff [6]: 0.00021 s⁻¹
kon [6]: 520000 M⁻¹ s⁻¹
B12: OS019 (antibody, human IgG1, kappa)
heavy: not shown
light: B8 light with G89Q
notes: also called IgG1 LC G89Q

Kd [6]: 470 pM
koff [6]: 0.00022 s⁻¹
kon [6]: 470000 M⁻¹ s⁻¹
B13: OS020 (antibody, human IgG1, kappa)
heavy: not shown
light: B8 light with G89Q
notes: IgG1, HC D72E and LC G89Q, wild type glycosylation; also called IgG1 HC D72E LC G89Q

Kd [7]: 800 pM
koff [7]: 0.00037 s⁻¹
kon [7]: 460000 M⁻¹ s⁻¹
B14: OS023 (antibody, human IgG1, kappa)
heavy: not shown
light: B8 light with G89Q
modifications: afucosylated glycan (GlymaxX expression)
notes: IgG1, HC D72E and LC G89Q, afucosylated; also called IgG1 HC D72E LC G89Q afucosylated

Relative EC50 ADCC V158 (high); target cells FlpIn293-hCD163 [1]: 1.4 relative (EC50 OS001/EC50 construct)
Relative EC50 ADCC F158 (low); target cells FlpIn293-hCD163 [2]: 1.2 relative (EC50 OS001/EC50 construct)
B15: OS010 (antibody, human IgG1, kappa)
heavy: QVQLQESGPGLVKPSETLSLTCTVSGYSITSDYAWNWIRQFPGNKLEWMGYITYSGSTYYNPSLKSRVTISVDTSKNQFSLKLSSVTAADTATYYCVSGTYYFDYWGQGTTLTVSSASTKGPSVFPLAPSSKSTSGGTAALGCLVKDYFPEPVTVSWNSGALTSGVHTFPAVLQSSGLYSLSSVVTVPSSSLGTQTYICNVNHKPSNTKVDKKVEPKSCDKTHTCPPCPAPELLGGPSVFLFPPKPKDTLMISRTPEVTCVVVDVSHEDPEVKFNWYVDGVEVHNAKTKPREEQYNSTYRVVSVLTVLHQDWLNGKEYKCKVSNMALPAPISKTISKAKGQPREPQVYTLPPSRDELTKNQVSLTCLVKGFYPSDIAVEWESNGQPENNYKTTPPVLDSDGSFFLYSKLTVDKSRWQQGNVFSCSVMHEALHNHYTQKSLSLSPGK
light: B8 light

Relative EC50 ADCC V158 (high); target cells FlpIn293-hCD163 [1]: 3.7 relative (EC50 OS001/EC50 construct)
Relative EC50 ADCC F158 (low); target cells FlpIn293-hCD163 [2]: 4 relative (EC50 OS001/EC50 construct)
B16: OS016 (antibody, human IgG1, kappa)
heavy: QVQLQESGPGLVKPSETLSLTCTVSGYSITSDYAWNWIRQFPGNKLEWMGYITYSGSTYYNPSLKSRVTISVDTSKNQFSLKLSSVTAADTATYYCVSGTYYFDYWGQGTTLTVSSASTKGPSVFPLAPSSKSTSGGTAALGCLVKDYFPEPVTVSWNSGALTSGVHTFPAVLQSSGLYSLSSVVTVPSSSLGTQTYICNVNHKPSNTKVDKKVEPKSCDKTHTCPPCPAPELLAGPSVFLFPPKPKDTLMISRTPEVTCVVVDVEFEDPEVKFNWYVDGVEVHNAKTKPREEQYNSTYRVVSVLTVLHQDWLNGKEYKCKVTNKALPAPEEKTISKAKGQPREPQVYTLPPSRDELTKNQVSLTCLVKGFYPSDIAVEWESNGQPENNYKTTPPVLDSDGSFFLYSKLTVDKSRWQQGNVFSCSVMHEALHNHYTQKSLSLSPGK
light: B8 light

Kd [7]: 950 pM
koff [7]: 0.00049 s⁻¹
kon [7]: 520000 M⁻¹ s⁻¹
B18: OS022 (antibody, human IgG1, kappa)
heavy: not shown
light: B8 light
modifications: afucosylated glycan (GlymaxX expression)
notes: IgG1, HC D72E, afucosylated; also called IgG1 HC D72E afucosylated

The next lines start with the binder.

B1: OS000 (antibody)
heavy: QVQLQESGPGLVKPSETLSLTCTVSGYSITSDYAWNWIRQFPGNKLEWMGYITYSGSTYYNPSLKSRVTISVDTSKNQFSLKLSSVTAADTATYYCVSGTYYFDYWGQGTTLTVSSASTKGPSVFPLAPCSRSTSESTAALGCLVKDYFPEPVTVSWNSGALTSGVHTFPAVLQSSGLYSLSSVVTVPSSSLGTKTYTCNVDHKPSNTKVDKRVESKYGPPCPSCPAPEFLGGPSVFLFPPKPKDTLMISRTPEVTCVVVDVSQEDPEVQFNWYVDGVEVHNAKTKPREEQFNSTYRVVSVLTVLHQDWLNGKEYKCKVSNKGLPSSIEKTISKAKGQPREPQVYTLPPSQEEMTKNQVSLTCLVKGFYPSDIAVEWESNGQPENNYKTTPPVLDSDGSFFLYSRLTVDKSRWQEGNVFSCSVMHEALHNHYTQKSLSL
light: B8 light
Relative EC50 ADCC V158 (high); target cells FlpIn293-hCD163 [1]: 0 relative (EC50 OS001/EC50 construct)
Relative EC50 ADCC F158 (low); target cells FlpIn293-hCD163 [2]: 0 relative (EC50 OS001/EC50 construct)

B2: OS003 (antibody, human IgG1, kappa)
heavy: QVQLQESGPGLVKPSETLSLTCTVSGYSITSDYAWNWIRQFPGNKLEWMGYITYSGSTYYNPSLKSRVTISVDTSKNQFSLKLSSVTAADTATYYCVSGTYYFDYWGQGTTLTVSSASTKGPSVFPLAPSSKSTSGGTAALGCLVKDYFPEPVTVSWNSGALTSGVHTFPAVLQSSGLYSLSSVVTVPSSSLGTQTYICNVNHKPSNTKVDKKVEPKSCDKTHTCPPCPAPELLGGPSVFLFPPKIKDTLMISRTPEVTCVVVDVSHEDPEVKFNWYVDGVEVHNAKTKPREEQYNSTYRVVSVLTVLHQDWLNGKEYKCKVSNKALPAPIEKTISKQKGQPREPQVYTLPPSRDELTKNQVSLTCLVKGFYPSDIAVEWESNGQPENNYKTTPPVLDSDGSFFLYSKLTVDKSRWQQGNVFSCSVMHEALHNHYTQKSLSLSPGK
light: B8 light
Relative EC50 ADCC V158 (high); target cells FlpIn293-hCD163 [1]: 1.5 relative (EC50 OS001/EC50 construct)
Relative EC50 ADCC F158 (low); target cells FlpIn293-hCD163 [2]: 1.3 relative (EC50 OS001/EC50 construct)

B3: OS004 (antibody, human IgG1, kappa)
heavy: QVQLQESGPGLVKPSETLSLTCTVSGYSITSDYAWNWIRQFPGNKLEWMGYITYSGSTYYNPSLKSRVTISVDTSKNQFSLKLSSVTAADTATYYCVSGTYYFDYWGQGTTLTVSSASTKGPSVFPLAPSSKSTSGGTAALGCLVKDYFPEPVTVSWNSGALTSGVHTFPAVLQSSGLYSLSSVVTVPSSSLGTQTYICNVNHKPSNTKVDKKVEPKSCDKTHTCPPCPAPELLGGPSVFLFPPKPKDTLMISRTPEVTCVVVDVSHEDPEVKFNWYVDGVEVHNAKTKPREEQYNYARVVSVLTVLHQDWLNGKEYKCKVSNKALPAPIAATISKAKGQPREPQVYTLPPSRDELTKNQVSLTCLVKGFYPSDIAVEWESNGQPENNYKTTPPVLDSDGSFFLYSKLTVDKSRWQQGNVFSCSVMHEALHNHYTQKSLSLSPGK
light: B8 light
Relative EC50 ADCC V158 (high); target cells FlpIn293-hCD163 [1]: 1.6 relative (EC50 OS001/EC50 construct)
Relative EC50 ADCC F158 (low); target cells FlpIn293-hCD163 [2]: 3.5 relative (EC50 OS001/EC50 construct)

B4: OS005 (antibody, human IgG1, kappa)
heavy: B16 heavy with L234V, A235G, F242L, E266S, F267H, R291P, Y299L, T323S, E331I, P395L
light: B8 light
Relative EC50 ADCC V158 (high); target cells FlpIn293-hCD163 [1]: 2.2 relative (EC50 OS001/EC50 construct)
Relative EC50 ADCC F158 (low); target cells FlpIn293-hCD163 [2]: 5.4 relative (EC50 OS001/EC50 construct)
Relative EC50 ADCC (CD16 V158); target cells M2c macrophages [3]: 23 relative (normalized to OS001)
Relative EC50 ADCC (CD16 F158); target cells M2c macrophages [4]: 13 relative (normalized to OS001)

B5: OS006 (antibody, human IgG1, kappa)
heavy: B16 heavy with A235G, S238D, E266S, F267H, T323S, A329L
light: B8 light
Relative EC50 ADCC V158 (high); target cells FlpIn293-hCD163 [1]: 5.9 relative (EC50 OS001/EC50 construct)
Relative EC50 ADCC F158 (low); target cells FlpIn293-hCD163 [2]: 2.5 relative (EC50 OS001/EC50 construct)
Relative EC50 ADCC (CD16 V158); target cells M2c macrophages [3]: 26 relative (normalized to OS001)
Relative EC50 ADCC (CD16 F158); target cells M2c macrophages [4]: 71 relative (normalized to OS001)

B6: OS007 (antibody, human IgG1, kappa)
heavy: B16 heavy with S238D, E266S, F267H, T323S
light: B8 light
Relative EC50 ADCC V158 (high); target cells FlpIn293-hCD163 [1]: 4 relative (EC50 OS001/EC50 construct)
Relative EC50 ADCC F158 (low); target cells FlpIn293-hCD163 [2]: 5.6 relative (EC50 OS001/EC50 construct)

B7: OS008 (antibody, human IgG1, kappa)
heavy: B16 heavy with S238D, E266S, F267H, T323S, A329L
light: B8 light
Relative EC50 ADCC V158 (high); target cells FlpIn293-hCD163 [1]: 4.5 relative (EC50 OS001/EC50 construct)
Relative EC50 ADCC F158 (low); target cells FlpIn293-hCD163 [2]: 3.2 relative (EC50 OS001/EC50 construct)

B9: OS018 (antibody, human IgG1, kappa)
heavy: not shown
light: B8 light
notes: also called IgG1 HC D72E
Kd [6]: 510 pM
koff [6]: 0.00033 s⁻¹
kon [6]: 650000 M⁻¹ s⁻¹

B10: OS001 (antibody, human IgG1, kappa)
heavy: not shown
light: B8 light
Relative EC50 ADCC V158 (high); target cells FlpIn293-hCD163 [1]: 1 relative (EC50 OS001/EC50 construct)
Relative EC50 ADCC F158 (low); target cells FlpIn293-hCD163 [2]: 1 relative (EC50 OS001/EC50 construct)
Relative EC50 ADCC (CD16 V158); target cells M2c macrophages [3]: 1 relative (normalized to OS001)
Relative EC50 ADCC (CD16 F158); target cells M2c macrophages [4]: 1 relative (normalized to OS001)

B17: OS002 (antibody, human IgG1, kappa)
heavy: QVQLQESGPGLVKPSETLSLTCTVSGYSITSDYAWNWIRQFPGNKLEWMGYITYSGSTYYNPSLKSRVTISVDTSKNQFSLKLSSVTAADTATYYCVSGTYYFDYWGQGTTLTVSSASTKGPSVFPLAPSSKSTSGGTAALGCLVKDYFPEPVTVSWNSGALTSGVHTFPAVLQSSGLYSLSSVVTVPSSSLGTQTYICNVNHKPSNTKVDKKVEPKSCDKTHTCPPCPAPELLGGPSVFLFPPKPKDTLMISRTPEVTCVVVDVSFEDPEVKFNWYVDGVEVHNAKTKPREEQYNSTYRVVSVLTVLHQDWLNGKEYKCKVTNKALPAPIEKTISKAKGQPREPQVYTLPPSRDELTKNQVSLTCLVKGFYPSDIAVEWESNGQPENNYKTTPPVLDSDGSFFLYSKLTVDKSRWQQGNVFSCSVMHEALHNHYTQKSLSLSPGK
light: B8 light
Relative EC50 ADCC V158 (high); target cells FlpIn293-hCD163 [1]: 0.9 relative (EC50 OS001/EC50 construct)
Relative EC50 ADCC F158 (low); target cells FlpIn293-hCD163 [2]: 1.5 relative (EC50 OS001/EC50 construct)
